One molecule from patent publication US20220332804A1 (CSL INNOVATION, published 2022) can be followed below.

Changes are numbered by the printed parent chain.

Holding throughout (assay): SPR, mAb captured, C2 mutant analyte;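 also: Anti-C2 mAbs captured on goat anti-human IgG Biacore CM5 chips, alanine or serine C2 surface mutants flowed over at 37 °C, double-referenced sensorgrams fitted to a 1:1 binding model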
In general terms: SPR reads the build-up and loss of mass on a sensor chip optically.

The target of one test is T1, human C2 I320A (human, UniProt P06681 21-752).
T1 sequence: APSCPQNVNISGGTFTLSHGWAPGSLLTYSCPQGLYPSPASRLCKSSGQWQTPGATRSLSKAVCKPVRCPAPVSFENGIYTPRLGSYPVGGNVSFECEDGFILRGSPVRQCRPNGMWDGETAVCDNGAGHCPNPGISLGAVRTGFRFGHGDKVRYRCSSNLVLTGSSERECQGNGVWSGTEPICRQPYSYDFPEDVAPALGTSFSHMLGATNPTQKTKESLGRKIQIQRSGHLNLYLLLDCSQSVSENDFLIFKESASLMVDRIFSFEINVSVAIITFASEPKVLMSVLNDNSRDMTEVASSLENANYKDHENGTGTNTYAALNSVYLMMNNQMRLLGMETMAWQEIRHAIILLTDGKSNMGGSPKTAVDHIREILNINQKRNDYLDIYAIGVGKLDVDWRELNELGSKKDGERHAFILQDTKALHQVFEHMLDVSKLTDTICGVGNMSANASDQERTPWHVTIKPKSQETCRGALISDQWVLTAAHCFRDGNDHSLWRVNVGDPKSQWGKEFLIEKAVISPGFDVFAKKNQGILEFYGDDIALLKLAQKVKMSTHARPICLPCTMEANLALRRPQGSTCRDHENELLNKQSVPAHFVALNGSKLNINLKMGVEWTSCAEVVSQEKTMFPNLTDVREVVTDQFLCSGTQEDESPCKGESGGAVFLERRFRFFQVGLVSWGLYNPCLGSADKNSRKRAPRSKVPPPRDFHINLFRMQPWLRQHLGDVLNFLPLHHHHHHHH

For a further test, the target named is T2, human C2 K415A (human, UniProt P06681 21-752).
T2 sequence: T1 sequence with A300I, K395A

In a further test the target is T3, human C2 N424A (human, UniProt P06681 21-752).
T3 sequence: T1 sequence with A300I, N404A

The target in the next test is T4, human C2 L453A (human, UniProt P06681 21-752).
T4 sequence: T1 sequence with A300I, L433A

B1: RF16-214 (antibody, V domains shown)
VH: EVQLLESGGGLVQPGGSLRLSCAASGFTFSWYQMMWVRQAPGKGLEWVSRIYPSGGGTAYADSVKGRFTISRDNSKNTLYLQMNSLRAEDTAVYYCARDAGYGDNWGQGTLVTVSS
VL: QSALTQPPSVSVSPGQTASITCSGDKLGEKYASWYQQKAGQSPVMVIYQDRKRPSGIPERFSGSNSGNTATLTISGTQAMDEADYYCQAWDTRAVVFGGGTKLTVLG
For the molecule B1, in the test with human C2 I320A, the binding result is recorded as “no binding”. Also, the dissociation constant Kd (usually a measure of binding affinity in units of concentration) with human C2 K415A turned out to be 46 nM; with human C2 N424A, 16.1 nM; with human C2 L453A it was 1410 nM.
